Laboratory results reported in patent publication US10464978B2, “Peptides and combination of peptides for use in immunotherapy against ovarian cancer and other cancers” (immatics biotechnologies GmbH, priority 2015, dated 2019).

Target: HLA-A*02:01 (Homo sapiens, UniProt P04439, D140Y/D185E/D98H/E176V/E277Q/G131W/G231S/I119V/I121R/I166T/I218V/L300P/L318F/N151K/N90K/P208A/P217A/Q86G/Q94H/R138H/R169H/T345S)
Assay: MHC binding assay: UV-ligand exchange with beta2m ELISA (peptide exchange yield)
Conditions: binding to HLA-A*02:01
How it was run: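 Values give exchange yield, measured by β2m ELISA: 100-fold-diluted monomers bound to streptavidin plates (1h, 37° C), probed with HRP anti-β2m at 2 ug/ml and read at 450 nm after TMB. Monomers came from UV-triggered cleavage of a photolabile peptide and exchange for the test peptide.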

| Peptide exchange (MHC class I binding score, peptide exchange yield) | Substance |
| --- | --- |
| “++” (≥20% = ++) | 505 (SLAPGDVVRQV; listed as Homo sapiens) [compound 505] |
| “+++” (≥50 = +++) | 352 (SLLELLHIYV; listed as Homo sapiens) [compound 352] |
| “+++” (≥50 = +++) | 454 (KLPPPPPQA; listed as Homo sapiens) [compound 454] |
| “+++” (≥50 = +++) | 326 (FLPEALDFV; listed as Homo sapiens) [compound 326] |
| “++” (≥20% = ++) | 524 (ALIENLTHQI; listed as Homo sapiens) [compound 524] |
| “+++” (≥50 = +++) | 503 (SLNHFTHSV; listed as Homo sapiens) [compound 503] |
| “+++” (≥50 = +++) | 608 (SLLSVSHAL; listed as Homo sapiens) [compound 608] |
| “+++” (≥50 = +++) | 356 (KLLGKLPEL; listed as Homo sapiens) [compound 356] |
| “+++” (≥50 = +++) | 525 (VLLEAGEGLVTI; listed as Homo sapiens) [compound 525] |
| “+++” (≥50 = +++) | 593 (GLPRFGIEMV; listed as Homo sapiens) [compound 593] |
| “+++” (≥50 = +++) | 561 (YLQLTQSEL; listed as Homo sapiens) [compound 561] |
| “+++” (≥50 = +++) | 345 (VIWKALIHL; listed as Homo sapiens) [compound 345] |
| “+++” (≥50 = +++) | 462 (KLAKQPETV; listed as Homo sapiens) [compound 462] |
| “+++” (≥50 = +++) | 597 (KLLEGQVIQL; listed as Homo sapiens) [compound 597] |
| “+++” (≥50 = +++) | 315 (YLQDVVEQA; listed as Homo sapiens) [compound 315] |
| “++” (≥20% = ++) | 428 (KLGHTDILVGV; listed as Homo sapiens) [compound 428] |
| “++” (≥20% = ++) | 408 (VLDDSIYLV; listed as Homo sapiens) [compound 408] |
| “+++” (≥50 = +++) | 439 (YLLQEIYGI; listed as Homo sapiens) [compound 439] |
| “+++” (≥50 = +++) | 443 (GLWEIENNPTV; listed as Homo sapiens) [compound 443] |
| “+++” (≥50 = +++) | 401 (ILLDDTGLAYI; listed as Homo sapiens) [compound 401] |
| “+++” (≥50 = +++) | 583 (ILANDGVLLAA; listed as Homo sapiens) [compound 583] |
| “+++” (≥50 = +++) | 469 (YLASDEITTV; listed as Homo sapiens) [compound 469] |
| “+++” (≥50 = +++) | 427 (ALLPLSPYL; listed as Homo sapiens) [compound 427] |
| “+++” (≥50 = +++) | 614 (LLLPDQPPYHL; listed as Homo sapiens) [compound 614] |
| “+++” (≥50 = +++) | 325 (FIMPATVADATAV; listed as Homo sapiens) [compound 325] |
| “++” (≥20% = ++) | 376 (AMFESSQNVLL; listed as Homo sapiens) [compound 376] |

Continued, substance first:

| Substance | Peptide exchange (MHC class I binding score, peptide exchange yield) |
| --- | --- |
| 87 (ALPEAPAPLLPHIT; listed as Homo sapiens) [compound 87] | “++” (≥20% = ++) |
| 59 (IMEDIILTL; listed as Homo sapiens) [compound 59] | “+++” (≥50 = +++) |
| 262 (LLWGDLIWL; listed as Homo sapiens) [compound 262] | “+++” (≥50 = +++) |
| 4 (GIMEHITKI; listed as Homo sapiens) [compound 4] | “++++” (≥75% = ++++) |
| 201 (RLVDYLEGI; listed as Homo sapiens) [compound 201] | “+++” (≥50 = +++) |
| 31 (YLAPELFVNV; listed as Homo sapiens) [compound 31] | “++” (≥20% = ++) |
| 265 (LLFGGTKTV; listed as Homo sapiens) [compound 265] | “++” (≥20% = ++) |
| 258 (ELAERVPAI; listed as Homo sapiens) [compound 258] | “++” (≥20% = ++) |
| 178 (ALTEIAFVV; listed as Homo sapiens) [compound 178] | “++++” (≥75% = ++++) |
| 14 (AAYGGLNEKSFV; listed as Homo sapiens) [compound 14] | “+++” (≥50 = +++) |
| 301 (FLVEDLVDSL; listed as Homo sapiens) [compound 301] | “+++” (≥50 = +++) |
| 12 (SLWPDPMEV; listed as Homo sapiens) [compound 12] | “+++” (≥50 = +++) |
| 211 (LLWPGAALL; listed as Homo sapiens) [compound 211] | “++” (≥20% = ++) |
| 226 (MLYVVPIYL; listed as Homo sapiens) [compound 226] | “++” (≥20% = ++) |
| 269 (RVLEVGALQAV; listed as Homo sapiens) [compound 269] | “++” (≥20% = ++) |
| 235 (YLNDLHEVLL; listed as Homo sapiens) [compound 235] | “++++” (≥75% = ++++) |

| Substance | Peptide exchange (MHC class I binding score, peptide exchange yield) |
| --- | --- |
| 16 (VLFQGQASL; listed as Homo sapiens) [compound 16] | “+++” (≥50 = +++) |
| 217 (ALIHPVSTV; listed as Homo sapiens) [compound 217] | “++” (≥20% = ++) |
| 3 (SLASKLTTL; listed as Homo sapiens) [compound 3] | “++++” (≥75% = ++++) |
| 253 (GLDAATATV; listed as Homo sapiens) [compound 253] | “++” (≥20% = ++) |
| 252 (LLIGTDVSL; listed as Homo sapiens) [compound 252] | “+++” (≥50 = +++) |
| 127 (KIGDEPPKV; listed as Homo sapiens) [compound 127] | “++” (≥20% = ++) |
| 261 (YVLEFLEEI; listed as Homo sapiens) [compound 261] | “++” (≥20% = ++) |
| 280 (VLPDPEVLEAV; listed as Homo sapiens) [compound 280] | “+++” (≥50 = +++) |
| 108 (ALFPGVALLLA; listed as Homo sapiens) [compound 108] | “++++” (≥75% = ++++) |
| 51 (LLPDLEFYV; listed as Homo sapiens) [compound 51] | “++++” (≥75% = ++++) |
| 121 (GVVDPRAISVL; listed as Homo sapiens) [compound 121] | “++” (≥20% = ++) |
| 61 (FLQGYQLHL; listed as Homo sapiens) [compound 61] | “++++” (≥75% = ++++) |
| 29 (KMLGIPISNILMV; listed as Homo sapiens) [compound 29] | “+++” (≥50 = +++) |
| 238 (YLISFQTHI; listed as Homo sapiens) [compound 238] | “+++” (≥50 = +++) |
| 89 (YILPTETIYV; listed as Homo sapiens) [compound 89] | “++++” (≥75% = ++++) |
